Reference: US20080096811A1, “[…] VPAC2 RECEPTOR PEPTIDE AGONISTS” (Eli Lilly and Company, published 2008)
*1 amine or outer side, *2 acyl side, *3 side chain or, on linkers, in order; H or OH if unused. Where a SMILES comes first, the peptide text is derived from it. Where no end group is shown, it is not given here. Side-chain parts run from the residue outwards. The star is where a group is joined. γGlu = O=C(O)[C@H](CCC(=O)[*:2])N[*:1]; Hydrocinnamoyl = O=C(CCc1ccccc1)*; Palmitoyl = CCCCCCCCCCCCCCCC(=O)*; Hexanoyl = CCCCCC(=O)*; Propionyl = CCC(=O)*; Bz = O=C(c1ccccc1)*

T1: human VPAC2 (Homo sapiens, UniProt P41587)
T1 construct: expressed in transfected cells
T1 sequence (P41587 24-438): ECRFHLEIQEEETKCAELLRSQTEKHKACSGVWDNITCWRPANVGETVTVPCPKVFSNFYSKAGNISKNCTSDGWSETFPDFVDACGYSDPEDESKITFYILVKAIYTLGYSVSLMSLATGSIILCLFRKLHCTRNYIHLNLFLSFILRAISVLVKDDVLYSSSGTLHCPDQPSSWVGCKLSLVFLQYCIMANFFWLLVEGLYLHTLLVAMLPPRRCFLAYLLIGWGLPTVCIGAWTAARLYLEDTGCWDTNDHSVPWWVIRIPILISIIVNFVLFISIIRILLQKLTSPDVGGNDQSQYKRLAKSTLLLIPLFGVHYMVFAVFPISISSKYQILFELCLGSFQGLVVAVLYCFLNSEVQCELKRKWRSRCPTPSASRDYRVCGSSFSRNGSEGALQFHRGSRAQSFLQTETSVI

T2: human VPAC1 (Homo sapiens, UniProt P32241)
T2 sequence (P32241 31-457): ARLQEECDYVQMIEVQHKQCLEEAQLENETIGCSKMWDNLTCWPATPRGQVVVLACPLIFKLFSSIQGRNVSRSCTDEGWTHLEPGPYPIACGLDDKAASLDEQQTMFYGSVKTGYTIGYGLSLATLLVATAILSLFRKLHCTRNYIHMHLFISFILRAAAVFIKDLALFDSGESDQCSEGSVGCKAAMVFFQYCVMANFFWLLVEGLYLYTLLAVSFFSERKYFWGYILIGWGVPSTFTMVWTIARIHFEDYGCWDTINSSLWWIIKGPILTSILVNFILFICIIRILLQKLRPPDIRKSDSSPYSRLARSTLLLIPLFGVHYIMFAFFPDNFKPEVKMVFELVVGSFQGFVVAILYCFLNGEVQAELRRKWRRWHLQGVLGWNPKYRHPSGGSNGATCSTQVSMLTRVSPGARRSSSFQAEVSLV

T3: human VPAC2 receptor (human) (UniProt P41587)
T3 sequence: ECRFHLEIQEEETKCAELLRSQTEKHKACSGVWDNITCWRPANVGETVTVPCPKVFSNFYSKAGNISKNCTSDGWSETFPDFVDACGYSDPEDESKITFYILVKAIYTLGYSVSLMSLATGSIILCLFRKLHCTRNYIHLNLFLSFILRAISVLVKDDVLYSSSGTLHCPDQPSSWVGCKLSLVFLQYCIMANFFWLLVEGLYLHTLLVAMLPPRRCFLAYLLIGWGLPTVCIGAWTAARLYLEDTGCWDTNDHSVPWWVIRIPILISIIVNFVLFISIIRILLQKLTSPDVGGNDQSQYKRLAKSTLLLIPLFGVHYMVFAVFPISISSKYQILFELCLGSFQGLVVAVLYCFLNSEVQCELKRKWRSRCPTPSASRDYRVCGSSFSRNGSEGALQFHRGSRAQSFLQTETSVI


Experiments:
[1] = molecular target: human PAC1 (Homo sapiens, UniProt P41586); assay: biochemical
Procedure: (§1) For this assay, the solutions and equipment include:
(§2) Presoak solution: 0.5% Polyethyleneamine in Aqua dest.
(§3) Buffer for flushing filter plates: 25 mM […] pH 7.4
(§4) Blocking buffer: 25 mM HEPES pH 7.4; 0.2% protease free BSA
(§5) Assay buffer: 25 mM HEPES pH 7.4; 0.5% protease free BSA
(§6) Dilution and assay plate: PS-Microplate, U form
(§7) Filtration Plate Multiscreen FB Opaque Plate; […] Type B Glasfiber filter
(§8) In order to prepare the filter plates, aspirate the presoak solution by vacuum filtration. Flush the plates twice with 200 μL flush buffer. Add 200 μL blocking buffer to the filter plate. The filter plate is then incubated […] for 1 hour at room temperature.
(§9) Fill the assay plate with 25 μL assay buffer, 25 μL membranes (2.5 μg) suspended in assay buffer, 25 μL compound (agonist) in assay buffer, and 25 μL tracer (about 40000 cpm) in assay buffer. Incubate the filled plate for 1 hour with shaking.
(§10) Conduct the transfer from assay plate to filter plate. Aspirate the blocking buffer by vacuum filtration and wash two times with flush buffer. Transfer 90 μL from the assay plate to the filter plate. Aspirate the 90 μL transferred from assay plate and wash three times with 200 μL flush buffer. Remove the plastic support. Dry for 1 hour at 60° C. Add 30 μL Microscint. Perform the count.

[2] = molecular target: T1, human VPAC2; assay: Filter binding assay, human VPAC2 membranes, 125I-labeled VIP tracer
Procedure: as §1, §2, §3, §4, §5, §6, §7, §8, §9, §10

[3] = molecular target: T2, human VPAC1; assay: Filter binding assay, human VPAC1 membranes, 125I-labeled VIP tracer; set-up: expressed in transfected cells
Procedure: as §1, §2, §3, §4, §5, §6, §7, §8, §9, §10

[4] = molecular target: T1, human VPAC2; assay: Alpha screen cAMP in vitro potency, human VPAC2; assay type: cell-based
Procedure: Alpha screen: Cells are washed in the culture flask once with PBS. Then, the cells are rinsed with enzyme free dissociation buffer. The dissociated cells are removed. The cells are then spun down and washed in stimulation buffer. For each data point, 50,000 cells suspended in stimulation buffer are used. To this buffer, Alpha screen acceptor beads are added along with the stimuli. This mixture is incubated for 60 minutes. Lysis buffer and Alpha screen donor beads are added and are incubated for 60 to 120 minutes. The Alpha screen signal (indicative of intracellular cAMP levels) is read in a suitable instrument (e.g. AlphaQuest from Perlin-Elmer). Steps including Alpha screen donor and acceptor beads are performed in reduced light.

[5] = molecular target: T3, human VPAC2 receptor (human)

Sequence of human PAC1 (P41586 21-468): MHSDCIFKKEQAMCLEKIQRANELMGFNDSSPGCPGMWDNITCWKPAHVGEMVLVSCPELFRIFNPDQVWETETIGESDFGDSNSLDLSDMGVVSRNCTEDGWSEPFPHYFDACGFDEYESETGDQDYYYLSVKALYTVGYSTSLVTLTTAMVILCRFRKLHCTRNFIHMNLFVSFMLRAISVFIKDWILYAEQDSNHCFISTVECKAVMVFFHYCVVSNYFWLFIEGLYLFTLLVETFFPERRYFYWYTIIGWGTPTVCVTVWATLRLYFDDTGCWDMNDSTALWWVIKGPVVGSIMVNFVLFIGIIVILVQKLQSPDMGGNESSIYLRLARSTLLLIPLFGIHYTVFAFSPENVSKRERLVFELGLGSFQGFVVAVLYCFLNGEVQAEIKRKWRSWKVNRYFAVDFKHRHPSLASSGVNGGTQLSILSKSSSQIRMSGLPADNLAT

| Molecule | EC50 (nM) for cAMP generation, Alpha Screen [5] | EC50 (nM) for cAMP generation, DiscoveRx [5] | also measured |
| --- | --- | --- | --- |
| CC[C@H](C)[C@H](NC(=O)[C@H](CO)NC(=O)[C@H](CC(N)=O)NC(=O)[C@H](CC(C)C)NC(=O)[C@H](Cc1ccc(O)cc1)NC(=O)[C@H](CCCCN)NC(=O)[C@H](CCCCN)NC(=O)[C@@H](NC(=O)[C@H](C)NC(=O)[C@H](CCSC)NC(=O)[C@H](CCC(N)=O)NC(=O)[C@H](CCCCN)NC(=O)[C@H](CCCN=C(N)N)NC(=O)[C@H](CC(C)C)NC(=O)[C@H](CCCN=C(N)N)NC(=O)[C@@H](NC(=O)[C@H](Cc1ccc(O)cc1)NC(=O)[C@H](CC(N)=O)NC(=O)[C@H](CC(=O)O)NC(=O)[C@@H](NC(=O)[C@H](Cc1ccccc1)NC(=O)[C@@H](NC(=O)[C@H](C)NC(=O)[C@H](CC(=O)O)NC(=O)[C@H](CO)NC(=O)[C@@H](N)Cc1cnc[nH]1)C(C)C)[C@@H](C)O)[C@@H](C)O)C(C)C)C(=O)N[C@@H](CC(C)C)C(=O)N[C@@H](CC(N)=O)C(=O)O [VIP, reference compound] |  |  | IC50 [1]: > 25000 nM |
| CCCCCC(=O)N[C@@H](Cc1c[nH]cn1)C(=O)N[C@@H](CO)C(=O)N[C@@H](CC(=O)O)C(=O)N[C@@H](C)C(=O)N[C@H](C(=O)N[C@@H](Cc1ccccc1)C(=O)N[C@H](C(=O)N[C@@H](CC(=O)O)C(=O)N[C@@H](CC(N)=O)C(=O)N[C@@H](Cc1ccc(O)cc1)C(=O)N[C@H](C(=O)N[C@@H](CCCNC(=N)N)C(=O)N[C@@H](CC(C)C)C(=O)N[C@@H](CCCNC(=N)N)C(=O)N[C@@H](CCCCN)C(=O)N[C@@H](C)C(=O)N[C@@H](C)C(=O)N[C@@H](C)C(=O)N[C@@H](C)C(=O)N[C@@H](CCCCN)C(=O)N[C@@H](CCCCN)C(=O)N[C@@H](Cc1ccc(O)cc1)C(=O)N[C@@H](CC(C)C)C(=O)N[C@@H](CCC(N)=O)C(=O)N[C@@H](CO)C(=O)N[C@H](C(=O)N[C@@H](CCCCN)C(=O)N[C@@H](CC(N)=O)C(=O)N[C@@H](CO)C(=O)N[C@@H](CCCNC(=N)N)C(=O)N[C@H](C(=O)N[C@@H](CO)C(=O)N1CCC[C@H]1C(=O)N1CCC[C@H]1C(=O)N1CCC[C@H]1C(N)=O)[C@@H](C)O)[C@@H](C)CC)[C@@H](C)O)[C@@H](C)O)C(C)C [Agonist P178] (Hexanoyl-HSDAVFTDNYTRLRKAAAAKKYLQSIKNSRTSPPP-NH2) |  |  | IC50 [2]: 0.16 nM; IC50 [3]: 35.7 nM; EC50 [4]: 0.12 nM |
| Hydrocinnamoyl-HSDAVFTDNYTRLRKQVAAKKYLQSIKNSRTSPPP-NH2 (SMILES CC[C@H](C)[C@H](NC(=O)[C@H](CO)NC(=O)[C@H](CCC(N)=O)NC(=O)[C@H](CC(C)C)NC(=O)[C@H](Cc1ccc(O)cc1)NC(=O)[C@H](CCCCN)NC(=O)[C@H](CCCCN)NC(=O)[C@H](C)NC(=O)[C@H](C)NC(=O)[C@@H](NC(=O)[C@H](CCC(N)=O)NC(=O)[C@H](CCCCN)NC(=O)[C@H](CCCNC(=N)N)NC(=O)[C@H](CC(C)C)NC(=O)[C@H](CCCNC(=N)N)NC(=O)[C@@H](NC(=O)[C@H](Cc1ccc(O)cc1)NC(=O)[C@H](CC(N)=O)NC(=O)[C@H](CC(=O)O)NC(=O)[C@@H](NC(=O)[C@H](Cc1ccccc1)NC(=O)[C@@H](NC(=O)[C@H](C)NC(=O)[C@H](CC(=O)O)NC(=O)[C@H](CO)NC(=O)[C@H](Cc1c[nH]cn1)NC(=O)CCc1ccccc1)C(C)C)[C@@H](C)O)[C@@H](C)O)C(C)C)C(=O)N[C@@H](CCCCN)C(=O)N[C@@H](CC(N)=O)C(=O)N[C@@H](CO)C(=O)N[C@@H](CCCNC(=N)N)C(=O)N[C@H](C(=O)N[C@@H](CO)C(=O)N1CCC[C@H]1C(=O)N1CCC[C@H]1C(=O)N1CCC[C@H]1C(N)=O)[C@@H](C)O) [P90] | 4.01 nM | 1.7 nM |  |
| Propionyl-HSDAVFTDNYTRLRKQVAAKKYLQSIKNSRTSPPPK([γGlu-Palmitoyl])-NH2 (SMILES CCCCCCCCCCCCCCCC(=O)N[C@@H](CCC(=O)NCCCC[C@H](NC(=O)[C@@H]1CCCN1C(=O)[C@@H]1CCCN1C(=O)[C@@H]1CCCN1C(=O)[C@H](CO)NC(=O)[C@@H](NC(=O)[C@H](CCCNC(=N)N)NC(=O)[C@H](CO)NC(=O)[C@H](CC(N)=O)NC(=O)[C@H](CCCCN)NC(=O)[C@@H](NC(=O)[C@H](CO)NC(=O)[C@H](CCC(N)=O)NC(=O)[C@H](CC(C)C)NC(=O)[C@H](Cc1ccc(O)cc1)NC(=O)[C@H](CCCCN)NC(=O)[C@H](CCCCN)NC(=O)[C@H](C)NC(=O)[C@H](C)NC(=O)[C@@H](NC(=O)[C@H](CCC(N)=O)NC(=O)[C@H](CCCCN)NC(=O)[C@H](CCCNC(=N)N)NC(=O)[C@H](CC(C)C)NC(=O)[C@H](CCCNC(=N)N)NC(=O)[C@@H](NC(=O)[C@H](Cc1ccc(O)cc1)NC(=O)[C@H](CC(N)=O)NC(=O)[C@H](CC(=O)O)NC(=O)[C@@H](NC(=O)[C@H](Cc1ccccc1)NC(=O)[C@@H](NC(=O)[C@H](C)NC(=O)[C@H](CC(=O)O)NC(=O)[C@H](CO)NC(=O)[C@H](Cc1c[nH]cn1)NC(=O)CC)C(C)C)[C@@H](C)O)[C@@H](C)O)C(C)C)[C@@H](C)CC)[C@@H](C)O)C(N)=O)C(=O)O) [P95] | 0.24 nM | 0.45 nM |  |
| HSDAVFTDNYTRLRKQAAAKKYLQSIKNSRTSPPP-NH2 [P96] | 0.9 nM |  |  |
| Bz-HSDAVFTDNYTRLRKQVAAKKYLQSIKNSRTSPPP-NH2 (SMILES CC[C@H](C)[C@H](NC(=O)[C@H](CO)NC(=O)[C@H](CCC(N)=O)NC(=O)[C@H](CC(C)C)NC(=O)[C@H](Cc1ccc(O)cc1)NC(=O)[C@H](CCCCN)NC(=O)[C@H](CCCCN)NC(=O)[C@H](C)NC(=O)[C@H](C)NC(=O)[C@@H](NC(=O)[C@H](CCC(N)=O)NC(=O)[C@H](CCCCN)NC(=O)[C@H](CCCNC(=N)N)NC(=O)[C@H](CC(C)C)NC(=O)[C@H](CCCNC(=N)N)NC(=O)[C@@H](NC(=O)[C@H](Cc1ccc(O)cc1)NC(=O)[C@H](CC(N)=O)NC(=O)[C@H](CC(=O)O)NC(=O)[C@@H](NC(=O)[C@H](Cc1ccccc1)NC(=O)[C@@H](NC(=O)[C@H](C)NC(=O)[C@H](CC(=O)O)NC(=O)[C@H](CO)NC(=O)[C@H](Cc1c[nH]cn1)NC(=O)c1ccccc1)C(C)C)[C@@H](C)O)[C@@H](C)O)C(C)C)C(=O)N[C@@H](CCCCN)C(=O)N[C@@H](CC(N)=O)C(=O)N[C@@H](CO)C(=O)N[C@@H](CCCNC(=N)N)C(=O)N[C@H](C(=O)N[C@@H](CO)C(=O)N1CCC[C@H]1C(=O)N1CCC[C@H]1C(=O)N1CCC[C@H]1C(N)=O)[C@@H](C)O) [P91] | 1.9 nM | 0.76 nM |  |
